Data from patent US11504374B2, “Compositions and methods for the treatment of a beta-catenin-associated disease or disorder” (Dicerna Pharmaceuticals, Inc., priority 2016, dated 2022).

Assays:
SW403 tumors = experiment: Tumor growth inhibition, subcutaneous SW403 colorectal tumors in nude mice; assay type: in vivo; conditions: for tumor growth inhibition: each agent alone, 0.3 mg/kg
Protocol: (§1) 6-8 week old Hsd:Athymic Nude-Foxn1^nu mice (hereby referred to as nude mice) were injected subcutaneously with LS411N (5×10^6 cells), SW403 (5×10^6 cells), Ls174t (5×10^6 cells) or Hep3B (5×10^6 cells+matrigel) under the right shoulder. Tumor volume was measured twice a week to monitor tumor growth/suppression. Dosing was initiated when the tumors reached 200-250 mm^3. For tumor growth inhibition studies, animals were randomized and assigned to different cohorts and subjected to dosing cycles. BCAT1 or LNP was given intravenously via lateral tail vein at a total volume of 10 ml/kg. Trametinib was given orally at a volume of 10 mi/kg.
(§2) Human cell lines LS411N and SW403, Ls174t and Hep3B were obtained from ATCC (Manassas, Va.) and grown in RPMI/DMEM medium supplemented with 10% FBS. LS411N is a human colorectal cell line harboring mutations in the adenomatous polyposis coli (APC) and BRAF genes. APC is a component of the destruction complex in the Wnt signaling pathway. SW403 is a human colorectal cell line harboring mutations in the APC and KRAS genes. LS174t is a human colorectal cell line harboring mutations in the CTNNB1 and KRAS genes.
The combination treatment was also evaluated in a third CRC model (SW403) that has APC and KRAS mutations. As described for the other two models, we first checked the single agent Trametinib efficacy at different dose levels in these tumors and picked 0.3 mg/kg as the optimal dose for the combination study (FIG. 5C). BCAT1 was administered at the same dose (0.3 mg/kg) and used in combination with Trametinib.
In these CRC models, tumors generally develop resistance to Trametinib over time. To investigate this resistance, SW403 tumors were continuously treated with Trametinib at 3 mg/kg doses (qdx3, 3 mg/kg×3) until the tumors stopped responding to the treatment. Once the tumors stopped responding and became resistant to Trametinib treatment, we treated the tumors with a combination of BCAT1 and Trametinib (qdx3, 3mpk+ qdx3, 3mpk) (around Day 42). […]

Ls174t liver metastases = experiment: Survival in Ls174t CRC liver metastases model; assay type: in vivo, nude mice; conditions: for mice that died around day 48: 2 mg/kg or 2+2 mg/kg, start 3 weeks after implantation; for median survival: single agent 2 mg/kg, start 3 weeks after implantation of 2×10^6 cells
Protocol: (§3) Colorectal cancer (CRC) liver metastases models were generated by surgically implanting 1-2×10^6 cells in the spleen of nude mice after midline abdominal incision. After surgery, the abdominal incision was closed with 5-0 to 6-0 absorbable, nonbraided suture and the skin was closed with a single wound clip. Mice were anesthetized with isoflurane before initiating the surgery and during surgery. Buprenorphine was given preoperatively and post-operatively at 0.1 mg/kg subcutaneously for pain relief. Mice were held in a pathogen-free environment and all procedures involving animals were performed according to protocols approved by Dicerna Pharmaceuticals' Institutional Animal Care and Use Committee (Dicerna-IACUC).
We developed multiple CRC liver metastatic models by surgically implanting Ls174t and LS411N cells in spleen.
Before we evaluated the combination strategies in these CRC metastatic models, we ran a single agent Trametinib efficacy in the Ls174t liver metastatic model. Fewer number of Ls174t cells (1×10^6 cells) were implanted in the spleen this model to reduce the aggressiveness of the tumor progression. 18 days after the implantation, mice were randomly distributed into 3 groups and treated with PBS, Trametinib at 1 mg/kg or Trametinib at 3 mg/kg dose levels (qdx3, 3 cycles).
Next we ran a combination efficacy study in mice bearing Ls714t liver metastasis based on the doses used in the single agent efficacy studies. This time, the treatment was initiated 3 weeks after tumor implantation of 2×10^6 Ls174t cells. BCAT1, Placebo, and Trametinib were dosed at 2 mg/kg and the combination groups (Placebo+Trametinib or BCAT1+Trametinib) were dosed at 2+2 mg/kg.

LS411N tumors = experiment: Tumor growth inhibition, subcutaneous LS411N colorectal tumors in nude mice; assay type: in vivo; conditions: for growth inhibition: single agent, 0.1 mg/kg; for tumor growth inhibition: 2 cycles
Protocol: as §1, §2
The single agent efficacy of BCAT1 was evaluated at different dose levels in different colorectal cancer models. […] FIG. 2A. […] FIG. 2C. […] Without intending to be bound by any theory, it appears that the Wnt pathway may be reactivated when treatment is stopped.
We then evaluated the single agent Trametinib in LS411N tumor bearing mice at different dose levels (3, 1 and 0.3 mg/kg) and selected […] as the dose to be used in the combination study. FIG. 5A. For BCAT1, a dose of 0.1 mg/kg was selected from the previous single agent efficacy studies to be used in combination with Trametinib to treat LS411N tumors. […] FIG. 5B.

Hep3B tumors = experiment: Tumor growth inhibition, mouse model bearing Hep3B tumors; assay type: in vivo; conditions: administered individually at 2 mg/kg
Protocol: as §1
Combination therapy with BCAT1 and a nucleic acid inhibitor molecule that targets the c-Myc gene (“MYC1”) was also evaluated. MYC1 has a 25 base pair passenger strand and a 27 base pair guide strand that form a duplex region consisting of 25 base pairs, where the 3′ end of the passenger strand and 5′ end of the guide strand form a blunt end, and the 3′ end of the guide strand consists of a single-stranded, two-base overhang. FIG. 9. The MYC1 construct was formulated in EnCore LNP.

RKO tumors = experiment: Tumor growth inhibition, β-catenin/APC wild type RKO colorectal tumors; assay type: in vivo; conditions: qdx3, 3 mg/kg, 2 cycles
LS411N liver metastases = experiment: Survival in LS411N CRC liver metastases model; assay type: in vivo, nude mice; conditions: qdx3, 3 mg/kg, 3 weeks
Protocol: as §3
We developed multiple CRC liver metastatic models by surgically implanting Ls174t and LS411N cells in spleen. 2-5 weeks after implanting 2×10^6 cells, the primary Ls174t tumors grown in the spleen spontaneously metastasized to the liver. To see if BCAT1 monotherapy will treat both primary and metastatic tumors and improve survival, 2 weeks after the tumor implantation, mice bearing Ls174t tumors were treated with BCAT1 or placebo at 3 mg/kg doses (qdx3, 3 mg/kg, 3 cycles). […] The […] survival time (“MST”) of the control-treated group is 31 days, whereas the MST of the BCAT1-treated group is 46 days).
Similarly, the mice with LS411N liver metastases were also treated with BCAT1 or controls (placebo or PBS) at the same dose levels for 3 weeks. Unlike the Ls174t tumors, LS411N tumors took a much longer time to metastasize to the liver after implanting 2×10^6 cells in the spleen. The treatment was initiated 18 days after the implantation of LS411N cells in the spleen. It took 112 days for all the control treated mice to die. […] It took about 6 months for all of the BCAT1-treated mice to die. In summary, BCAT treatment extended the survival of mice bearing LS411N liver metastasis by up to two-fold compared to the control treatment groups (MST of PBS/Placebo treatment groups is 99-102 days, whereas the MST of the BCAT1-treated group is 181 days).

LS174t tumors = experiment: Tumor growth inhibition, subcutaneous Ls174t colorectal tumors in nude mice; assay type: in vivo; conditions: qdx3, 3 mg/kg, 2 cycles
Protocol: as §1, §2
Combination therapy with BCAT1 and an MEK inhibitor (trametinib) was evaluated. Trametinib (99% purity) was dissolved in DMSO to make a clear solution of 5 mg/ml. […]

[1] = test system: multiple tumor types (xenograft, PDX, GEM tumors); experiment: Delivery of LNP formulated BCAT1 nucleic acid payload to tumors in mouse models; assay type: in vivo
Description: The BCAT1 construct was formulated in EnCore lipid nanoparticles (LNP).

[2] = start 18 days after implantation

## CC(=O)Nc1cccc(-n2c(=O)n(C3CC3)c(=O)c3c(Nc4ccc(I)cc4F)n(C)c(=O)c(C)c32)c1 [Trametinib, trametinib]
SW403 tumors
  tumor growth inhibition: 40%
Ls174t liver metastases; 1 mg/kg, qdx3, 3 cycles, 1×10^6 cells, start 18 days after implantation
  mean survival time (MST): 47 days
Ls174t liver metastases
  mice that died around day 48: 90%
Ls174t liver metastases; 3 mg/kg, qdx3, 3 cycles, 1×10^6 cells, start 18 days after implantation
  mean survival time (MST): 65 days
Ls174t liver metastases; qdx3, 3 cycles
  median survival: 44 days
LS411N tumors
  growth inhibition: about 20%

## MYC1: nucleic acid inhibitor molecule targeting the c-Myc gene; sense strand SEQ ID NO:5, antisense strand SEQ ID NO:6 (sense AGCUUUUUUGCCCUGCGUGACCAGA; antisense UCUGGUCACGCAGGGCAAAAAAGCUCC; listed as RNA, chemistry not given here)
Hep3B tumors
  growth inhibition: 40%

B1: BCAT1: nucleic acid inhibitor molecule targeting the β-catenin gene; sense strand SEQ ID NO:1, antisense strand SEQ ID NO:2 (nucleic acid)
sense: AGAAUACAAAUGAUGUAGAAACAGCC
antisense: UAGCUAUCGTGGCUGUUUCUACAUCAUUUGUAUUCUGC
modifications: chemistry not given here
RKO tumors
  anti-tumor efficacy: No efficacy
LS411N liver metastases
  extension of survival compared to control treatment groups: up to two-fold
  time for all treated mice to die: about 6 months
LS411N liver metastases; [2]
  mean survival time (MST): 181 days
  mice surviving at 112 days post-implant: 75%
SW403 tumors
  tumor growth inhibition: 20%
SW403 tumors; qdx3, 3 mg/kg, 2 cycles
  anti-tumor efficacy: Robust efficacy
LS174t tumors
  anti-tumor efficacy: Robust efficacy
Ls174t liver metastases
  mice that died around day 48: 90%
Ls174t liver metastases; qdx3, 3 mg/kg, 3 cycles, start 2 weeks after implantation of 2×10^6 cells
  mean survival time (MST): 46 days
Ls174t liver metastases; qdx3, 3 cycles
  median survival: 45 days
LS411N tumors; qdX3, 3 mg/kg, discontinued after the second cycle
  tumor growth after therapy discontinued: tumor growth resumed to a level roughly comparable to untreated subjects
LS411N tumors; qdx3, 0.3 mg/kg
  tumor growth inhibition: 47%
LS411N tumors; qdx3, 1 mg/kg, two weekly dosing cycles, i.v.
  tumor growth inhibition relative to vehicle-treated animals: 82%
LS411N tumors; qwx1, 3 mg/kg, weekly dosing
  tumor growth inhibition: 60%
LS411N tumors
  growth inhibition: about 20%
[1]; HCT116, DLD1, HL60
  delivery of BCAT1 to tumors: Negative: HCT116, DLD1, HL60
[1]; LNP formulated, tumor types of Table I (subcutaneous, orthotopic, disseminated, metastatic xenografts, PDX, GEM)
  delivery of the nucleic acid payload to tumors: effectively delivered
Hep3B tumors
  growth inhibition: 47%
